Measurements: patent US20070212686A1 (WHITEHEAD INSTITUTE FOR BIOMEDICAL RESEARCH, published 2007)

T1: bacterial-expressed 3'Flag-Acrp30 (full length) (murine, UniProt Q60994 18-247)
T1 construct: The bacterial construct is not described; also called Full Length Acrp; bacterial expressed Flag-tagged full-length
T1 sequence: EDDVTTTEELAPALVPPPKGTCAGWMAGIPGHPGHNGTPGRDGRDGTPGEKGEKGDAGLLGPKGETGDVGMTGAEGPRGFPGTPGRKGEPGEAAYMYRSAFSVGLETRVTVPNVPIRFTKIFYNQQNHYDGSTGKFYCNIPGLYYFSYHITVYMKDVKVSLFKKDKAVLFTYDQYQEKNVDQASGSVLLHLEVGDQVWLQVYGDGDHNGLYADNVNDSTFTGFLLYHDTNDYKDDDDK

B1: murine T-cadherin (full-length), over-expressed on cells (receptor)
chain: SIVVSPILIPENQRQPFPRDVGKVVDSDRPEGSKFRLTGKGVDQDPKGTFRINENTGSVSVTRTLDRETIATYQLYVETTDASGKTLEGPVPLEVIVIDQNDNRPIFREGPYIGHVMEGSPTGTTVMRMTAFDADDPATDNALWRYNIRQQTPDKPSPNMFYIDPEKGDIVTVVSPALLDRETLENPKYELIIEAQDMAGLDVGLTGTATATIVIDDKNDHSPKFTKKEFQARVEEGAVGVIVNLTVEDKDDPTTGAWRAAYTIINGNPGQSFEIHTNPQTNEGMLSVVKPLDYEISAFHTLLIKVENEDPLVPDVSYGPSSTATVHITVLDVNEGPVFYPDPMMVTKQENISVGSVLLTVNATDPDSLQHQTIRYSIYKDPAGWLSINPINGTVDTTAVLDRESPFVHNSVYTALFLAIDSGNPPATGTGTLLITLEDINDNAPVIYPTVAEVCDDARNLSVVILGASDKDLHPNTDPFKFEIHKQTVPDKVWKISKINNTHALVSLLQNLNKANYNLPIMVTDSGKPPMTNITDLKVQVCSCKNSKVDCNGAG
modifications: GPI anchor at the C-terminus (said of T-cadherin in general in the background)
notes: Expressed from the full-length cDNA in CHO, CHO-ER and Ba/F3 cells; also called pCDNA-Tcad; pBI-GFP-Tcad
B2: HEK produced hexameric and high-molecular weight 5'FlagAcrp30 (ligand)
chain: DYKDDDDKEDDVTTTEELAPALVPPPKGTCAGWMAGIPGHPGHNGTPGRDGRDGTPGEKGEKGDAGLLGPKGETGDVGMTGAEGPRGFPGTPGRKGEPGEAAYMYRSAFSVGLETRVTVPNVPIRFTKIFYNQQNHYDGSTGKFYCNIPGLYYFSYHITVYMKDVKVSLFKKDKAVLFTYDQYQEKNVDQASGSVLLHLEVGDQVWLQVYGDGDHNGLYADNVNDSTFTGFLLYHDTN
notes: Pool of hexamers (6 chains) and HMW species (more than 6 chains), about 50% pure, made by ammonium sulfate precipitation and anion exchange; also called HEX & HMW; hexameric and HMW 5'Flag-Acrp30

Tests used:
[1] = target: T1, bacterial-expressed 3'Flag-Acrp30 (full …); test: cell ELISA on CHO-T-cadherin cells, anti-Flag M2 detection
Description: (§1) CHO-ER cell lines infected with the bicistronic retroviral construct pBI-GFP-Tcad (referred to as CHO-T-cadherin) and control cells infected with pBI-GFP (referred to as CHO-GFP) were each grown in 96 well plates. One day after plating (1.5×10⁴/well), the cells were incubated in serum-free media for one hour, placed at 4° C. for thirty minutes, and blocked in PBS++ containing 4% dried milk for thirty minutes. Bacterial expressed Flag-tagged globular-Acrp30 bacterial expressed Flag-tagged full-length, or purified trimeric or hexameric and HMW 5′Flag-Acrp30 produced in HEK cells were incubated with the cells for one hour in blocking buffer at the indicated concentrations. The HEK expressed polypeptides were produced and purified by ammonium sulfate precipitation and anion-exchange chromatography. Pools containing the trimeric or a combination of hexamer and HMW 5′Flag-Acrp30 were identified by native gel electrophoresis and immunoblotting with a Flag antibody. The purity of these preparations was judged to be approximately 50% by Coomassie PAGE analysis. Protein concentration was determined by BCA assay (Pierce). The concentration of purified bacterial expressed proteins was determined by the absorbance at 280 nm and the calculated extinction coefficient derived from the primary amino acid sequence (Protean; DNAStar). […] The absorbance at 450 nm was measured with a plate reader.

[2] = target: B1; test: cell ELISA on CHO-T-cadherin cells, anti-Flag M2 detection; concentration as trimer equivalents
Description: as §1

Row | binding result [1] | EC50 [2] | Binder
1 | no binding | – | B1
2 | – | 25 to 50 nM | B2
